The series can be described thus: label from the status in PepcDB records.
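Also: failed if final PepcDB status was selected cloned or expressed and not failed if soluble or beyond.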

Regarding “MVPALALGLVIGVLLVVIGVSFAAMIFSGPLAPLATRGAGLTLFGAASLCGFLAVSSSFRSAISTPQDAPVAVLATMGVPVVAAMGMSDPNATFATMLAAMSIATLATGIALMAIGHFRLTRFFRFMPYPVVGGFLAGGGWMLVKGGISVMSSLSLNVESLPMLFESVHIWKWSPGVLYAISLWLVLKRWSHFLILPCSIVMVTAAYYVAFHILAISLADARAAGILLSGVPSSGLWPAFSISDLQTVRWDIVFDQTPIMFTVVLVTMMGLLLNISGLELGSGTDIDFDREFRNAGLANTLGGLGGSAPGSHTLSLSLLCSSSGAYTRLAGIITASVIAAVLFMGGSVLEYFPLPVLGGLLVFLGIDIMDSWLRATRRRLPLSDYLVLCVIFLVICFSGFLEGVAVGLVITVVLFIIRLSKVDIIHDSFTGLTLHSRVNRSIPQRTILQQHGERIRGYRLSGYLFFGSASLLVETLKQELRKTPQPWCILLDFKNVSGFDISAANAFQRFISSAHAEHVRIVLTETSPRFISMLQRILPIESIDNLVTAQDIDRGLEACEEAILTEYTERTAQQANAADMLFEQSVDDMMAHLDRQILFEALVEELRPWVQECHYEGETLLVEKGKTQQGLQMLVWGSATATDGDGGTRLAHLRAGDVLVPQAAFAPFVAREHIMADSPCRTVLLTAQARLLMEQENPDLALRLDRYVISSWKA”, the protein production result was “failed”.

Consider “MVQIIFDSKTGNVQRFVNKTGFQQIRKVDEMDHVDTPFVLVTYTTNFGQVPASTQSFLEKYAHLLLGVAASGNKVWGDNFAKSADTISRQYQVPILHKFELSGTSKDVELFTQEVERVVTKSSAKMDPVK”, for which the protein production entry was “not failed”.

With “MVQTPSKPITLDEFLKLPETEPASEYIEGKIIQKPMPQGKHSAIQSECVSVINSVVKPQRIARAFLELRCTFGDHSTVPDISVFIWSRIPREENGEIANIFLIAPDWTIEILSPDQSQTKVTKNILHCLKHGTQMGWLIDPDEQTVFVYRPQQETEVFDEPDALVPVPSFASELHLSIKDLFSWLL”, the protein production result was “not failed”.

On to “MVQVEKGHVAVVFLNDPERRNPLSPEMALSLLQALDDLEADPGVRAVVLTGRGKAFSAGADLAFLERVTELGAEENYRHSLSLMRLFHRVYTYPKPTVAAVNGPAVAGGAGLALACDLVVMDEEARLGYTEVKIGFVAALVSVILVRAVGEKAAKDLLLTGRLVEAREAKALGLVNRIAPPGKALEEAKALAEEVAKNAPTSLRLTKELLLALPGMGLEDGFRLAALANAWVRETGDLKEGIRAFFEKRPPRF”, for which the protein production entry was “not failed”.

Take “MVRISNMQFEVIENVKDGWNEEAFVERYSDVLNKYDYIVGDWGYNQLRLRGFFDDQNKKSTYDKKISTLQDYLYEYCNFGCAYFVVKRVKTESLEHHHHHH”: the protein production result was “failed”.

Turning to “MVRKSIDRSTAAEITRGIGNVFADLGMPDAEERQTKLRLAYALNAVIDRARLSQAAAAARLGINQPKVSALRNYKLEGFSVERLMTLLNALDQDVEIVIRKKPRSRAAARISVVAA”, the protein production result is listed as “not failed”.

Regarding “MVRLIKTETVISVLMGHFIKKLLFILLFVGVLIAPANAQNEKNMYSYKKIGNKYIVSINNHTEIVKALNAFCKEKGILSGSINGIGAIGELTLRFFNPKTKAYDDKTFREQMEISNLTGNISSMNEQVYLHLHITVGRSDYSALAGHLLSAIQNGAGEFVVEDYSERISRTYNPDLGLNIYDFERLEHHHHHH”, the protein production entry was “failed”.

In the case of “MVRVDQNLFNEVMYLLDELSQDITVPKNVRKVAQDSKAKLSQENESLDLRCATVLSMLDEMANDPNVPAHGRTDLYTIISKLEALSKS”, the protein production entry is recorded as “not failed”.

For “MVRYPLEPVLSIKKDRVDRAEKVVKEKRRLLELEQEKLRERESERDKVKNHYMQKIRQLREQLDDGTTSDAILKMKAYIKVVAIQLSEEEEKVNKQKENVLAASKELERAEVELTKRRKEEEKTRLHKEEWMKEALKEEARQEEKEQDEMGQLLHQLHKQKQRESGEN”, the protein production result is given as “failed”.

As to “MVSANTKPLSEFKTGEFVQIEKIQLEGTMKRRLLDLGFIPGATIKVLQRSPLGDPVAYQVSNTTIALRKEESSLIFGVLIGDDFRLEHHHHHH”, the protein production entry is “not failed”.

For “MVSAPASASSSPASSSFQSFFWQAAARPRAEPKRQALKRITLMTTDKTSPYEIHDDRFRHLIVGNAELEELYSGCRWAEGPVWFADLNCLLFSDIPNERMLRWVPDGGISVFRQPSNFTNGNTRDRQGRLVSCEHGGRRVTRTEVDGSITVLADSYGGKRLNSPNDVVVKSDGSVWFTDPTYGILSDYEGYKAEPEQKTRNVYRLDPATGKIDIAIDDFVQPNGLAFSPDETKLYVADSSYSHDISRPRHIRVFDVVDGVRLANGREFCNLDNGLPDGFRLDTAGNLWTSAGDGVHCFAPDGRLIGKIKVPQTVANLTFGGPKKNRLFITATKSLYSVYVAATGAQTPLEHHHHHH”, the protein production entry is given as “not failed”.

Consider “MVSDADASTSSSSIDIMPSANIQNDVPEPSVHTSHRRTRKPAYLQDYYCHSVASLTIHDISQFLSYEKVSPLYHSFLVCIAKAKEPSTYNEAKEFLVWCGAMDDEIGAMETTHTWEICTLPPNKKPIGCKWVYKIKYNSDGTIERYKARLVAKGYTQQEGIDFIETFSPVCKLTSVKLILAISAIYNFTLHQLDISNAFLNGDLDEEIYMKLPPGYAARQGDSLPPNAVCYLKKSIYGLKQASRQWFLKFSVTLIGFGFVQSHSDHTYFLKITATLFLCVLVYVDDIIICSNNDAAVDELKSQLKSCFKLRDLGPLKYFLGLEIARSAAGINICQRKYALDLLDETGLLGCKPSSVPMDPSVTFSAHSGGDFVDAKAYRRLIGRLMYLQITRLDISFAVNKLSQFSEAPRLAHQQAVMKILHYIKGTVGQGLFYSSQAEMQLQVFSDASFQSCKDTRRSTNGYCMFLGTSLISWKSKKQQVVSKSSAEAEYRALSFATDEMMWLAQFFRELQLPLSKPTLLFCDNTAAIHIATNAVFHERTKHIESDCHSVRERSVYQATLSYSFQAYDEQDGFTEYLSPILRGTIMYIVSMFGLAGLEALICFIFLFLFSFLTSFKASAQNPFYLNHDCPNRTTYSSNSTYSTNLKTLLSSFASRNASYSTGFQNIRAGQTPDRVTGLFLCRGDLSPEVCSNCVAFSVNESLTRCPNQREAVFYYEECILRYSHKNFLSTVTYEGELIMRNPNNISSIQNQRDQFIDLVQSNMNQAANEAANSSRKFSTIKTELTSLQTLYGLVQCTPDLARQDCFSCLTSSINRMMPLFRIGARQFWPSCNSRYELYAFYNETAIGTPSPPPLFPGSTPPLTSPSIPGKSGNSTVLVVAIVVLAVLLFIALVGYCFLAQRTKKTFDTASASEVGDDMATADSLQLDYRTIQTATNDFAESNKIGRGGFGEVYKGTFSNGKEVAVKRLSKNSRQGEAEFKTEVVVVAKLQHRNLVRLLGFSLQGEERILVYEYMPNKSLDCLLFDPTKQTQLDWMQRYNIIGGIARGILYLHQDSRLTIIHRDLKASNILLDADINPKIADFGMARIFGLDQTQDNTSRIVGTYGYMAPEYAMHGQFSMKSDVYSFGVLVLEIISGRKNSSFDESDGAQDLLTHTWRLWTNRTALDLVDPLIANNCQNSEVVRCIHIGLLCVQEDPAKRPTISTVFMMLTSNTVTLPVPRQPGFFIQSSPVKDPTDSDQSTTTKSTPASIDDELITDLYPR”, for which the protein production entry was “failed”.

As for “MVSGKVLKEPASGFMFMDTLDRGVKGYAGGWLVRGKRYNCIVETGAGAAVPLWLAGLKQAGIPLESIRWILLTHVHLDHAGGAGELLRHLPNARIGIHPLGVRHILDPQRLLSHAKVVWEKDFDLLGPMLPAPAERVVELGDGEIIEIDDVRRIKVLYTPGHTSHHVAFFEESTRGVFSGDALGAFFRGKHPFGEYVSMPGVSPPKGDIPAYVQSVERIAKLSPRRIYATHFGLWEPAMPYILSATSQIITISDLCRDVFYGGGGLQDFLSRAATLLASVRQSTRGQVELEKNYFSMAKAVWNYVVAEKGGESSPG”, the protein production result is “failed”.

With “MVSKRLTGAVALLFLAAGAAGAAGLTVKEQLGKDIFFDTNLSINGNQSCADCHAPEAGWTGPTSEVNAHGAVYEGSIAGRFGNRKPPSSAYATTAPILKYIRQGGGMFVGGNFWDGRATGEKLGNPAADQAQGPFLNPLEQGLPDSACVVHRVCTATYGTAMETLWPGSCAIAWPADVAAACATEGTVVNLDAPNRAASDLAYDYIALAIAAYEGSTESNAFTSKYDAFLAGKAFLTPEERRGLTLFNGKAKCARCHVNTGRAPLFTDYTYDNLGVPRNSENPFYESAFNPLGINWIDQGLGGFLASRIDYSRFATANLGKHKVPTLRNVDKKTSPDFVKAFGHNGYFKSLKEIVHFYNTRDVLPTCAPGSPGEKVTCWPEPELALTMNTTELGNLKLSDAEEDALVAFMKTLTDGYQP”, the protein production result is on record as “failed”.

For the sequence “MVSNIDHKAMEALLRGQGCANNLKILLENGEISSVSTEPLIHTILDSFSLALSFMDSPNHPPYHESSSHNMASHMSRRSSKQKLCVAEGLVNYNHDSRTMCPNDGFTWRKYGQKTIKASAHKRCYYRCTYAKDQNCNATKRVQKIKDNPPVYRTTYLGKHVCKAFAVHDDTYSSTMIRFDQVVPEPIMPQLTTIDHQVITVEENSAEHIMNQECDINDYLVDDDPFWASQFPPFPSSDTMFLENISAFD”, the protein production result was “failed”.

Regarding “MVSNSSITFKEFVDYWFEAYASTAVKPSTQKRYRQLLKPALRAIGNKPLNKVKPLDIQNIYIALAGTQSNCTILKLHRLLHEIFKHAQMWEYISDNPVKKVVPPTPEKKVFDLEHHHHHH”, the protein production result is “failed”.

In the case of “MVSPQGVIVARAIISCGVASKKPFYRDQTMETDFSVHSHKGKGSLMRRKPALRLLCSAALAAALAIGAGASPGFAETKAKPEDKAVTFDPGKVNTFSGAFLAGRNADVDQDYPTAISLYKKALEYDPANSEIRQRLMIAELLSGNFEAGAKIADSMKDDTSVERVTTIVRGLDAIKDKEFTKAEKILKYTGPNDLDRMVNTLLTAWARAGSGKPKEALALVNNMKGPGWISIFQKYNAAAIALVSGNTEAARKSLNEAVTDREGGATASDTYMRAVMALARLEASAGNKQKALDAIAVGDTFAPNYAPLKALREAIEKGEKPEQQITNAVEGAASVMFSIAGALNREGAEEIVTLYLQTSRALDPKSPDTLILLGGLAEAMKQPERAITFYREVPKDSPMHRISELQLGLTLAQTGKVEESRKHLLSLLESDPKDIRSYLAYGSVLSDAKDYKAMAENYDKAVEVIGAVPQKSDWSVFFQRGIAYERLKQWDKAEPNFKRALELNPEQPQVLNYLGYSWVDKGINLDEGMKMISRAVELRPNDGYIVDSLGWAHYRLGDFDQSVTELERAIELKAGDPTINDHLGDAYWRVGRKIEAVYQWNRALIGDNDDVDKAKVKEKIANGLPPVEKDAENTAKKDVAPQPPAPPAPATPTPDKKS”, the protein production result is recorded as “failed”.

Take “MVSRDFDRDKRLLTARQFSAVFDSPTGKVPGKHVLLLARENGLDHPRLGLVIGKKNVKLAVQRNRLKRLIRESFRHNQETLAGWDIVVIARKGLGELENPELHQQFGKLWKRLLRNRPRTESPADAPGVAD”: the protein production entry is reported as “not failed”.
